In article PMC2699393 (EMBO Reports, 2009):

Biological target: T1, MBP–TIP150 (maltose-binding protein–tracking protein 150) (human, UniProt Q5JR59 1-1369)
T1 sequence (looked up): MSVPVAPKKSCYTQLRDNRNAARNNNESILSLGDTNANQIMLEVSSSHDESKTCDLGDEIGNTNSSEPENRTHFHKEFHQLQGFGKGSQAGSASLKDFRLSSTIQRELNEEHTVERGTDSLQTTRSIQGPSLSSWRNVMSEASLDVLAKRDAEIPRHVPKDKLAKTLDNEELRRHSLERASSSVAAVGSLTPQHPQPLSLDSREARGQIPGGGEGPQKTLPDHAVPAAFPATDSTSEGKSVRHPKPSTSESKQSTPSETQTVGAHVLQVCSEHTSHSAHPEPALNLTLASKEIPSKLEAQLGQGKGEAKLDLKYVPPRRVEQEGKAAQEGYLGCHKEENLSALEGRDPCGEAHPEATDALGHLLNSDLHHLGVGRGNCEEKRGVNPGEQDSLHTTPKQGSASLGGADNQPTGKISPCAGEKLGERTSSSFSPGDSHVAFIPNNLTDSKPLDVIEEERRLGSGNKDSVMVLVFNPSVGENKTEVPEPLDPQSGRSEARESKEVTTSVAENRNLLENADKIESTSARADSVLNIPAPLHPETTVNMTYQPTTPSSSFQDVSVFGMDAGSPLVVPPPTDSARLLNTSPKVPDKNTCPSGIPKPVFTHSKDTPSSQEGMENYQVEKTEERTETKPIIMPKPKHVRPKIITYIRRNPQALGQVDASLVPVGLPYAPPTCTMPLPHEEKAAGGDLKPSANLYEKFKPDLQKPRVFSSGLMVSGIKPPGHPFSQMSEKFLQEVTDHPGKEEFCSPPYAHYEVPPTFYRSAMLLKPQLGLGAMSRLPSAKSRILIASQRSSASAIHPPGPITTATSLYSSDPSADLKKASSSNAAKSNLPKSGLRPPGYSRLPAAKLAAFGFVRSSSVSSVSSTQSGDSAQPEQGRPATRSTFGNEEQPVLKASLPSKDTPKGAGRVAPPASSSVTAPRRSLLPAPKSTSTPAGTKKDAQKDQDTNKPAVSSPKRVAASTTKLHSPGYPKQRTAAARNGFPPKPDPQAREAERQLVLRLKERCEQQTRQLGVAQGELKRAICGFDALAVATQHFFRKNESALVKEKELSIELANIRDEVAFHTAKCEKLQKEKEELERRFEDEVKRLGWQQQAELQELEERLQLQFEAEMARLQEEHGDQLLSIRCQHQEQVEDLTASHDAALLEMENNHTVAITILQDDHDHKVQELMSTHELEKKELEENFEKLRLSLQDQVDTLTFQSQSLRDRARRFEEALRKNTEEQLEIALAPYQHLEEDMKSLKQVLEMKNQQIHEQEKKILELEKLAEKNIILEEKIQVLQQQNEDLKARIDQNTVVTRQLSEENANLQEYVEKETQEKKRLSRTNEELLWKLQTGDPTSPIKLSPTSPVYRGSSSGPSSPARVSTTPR
Assay: pull-down

binding result: binds
B1: GST–EB1 (glutathione-S-transferase–end-binding protein 1) (natural protein, human, UniProt Q15691 1-268, looked up)
chain: MAVNVYSTSVTSDNLSRHDMLAWINESLQLNLTKIEQLCSGAAYCQFMDMLFPGSIALKKVKFQAKLEHEYIQNFKILQAGFKRMGVDKIIPVDKLVKGKFQDNFEFVQWFKKFFDANYDGKDYDPVAARQGQETAVAPSLVAPALNKPKKPLTSSSAAPQRPISTQRTAAAPKAGPGVVRKNPGVGNGDDEAAELMQQVNVLKLTVEDLEKERDFYFGKLRNIELICQENEGENDPVLQRIVDILYATDEGFVIPDEGGPQEEQEEY
